Experimental data: paper PMC4537477

Legend:
[1] = molecular target: full-length human histone H3 (human) (UniProt P68431); assay: SEC; Superdex 200 10/300 GL; complex obtained at 0.5 mol/L NaCl; eluted at 14.38 mL, apparent molecular weight about 60 kDa; apparent stoichiometry also by Coomassie-stained SDS-PAGE
[2] = molecular target: histone H3-H4 heterodimer (human) (UniProt P68431); assay: as above

stoichiometry N [1]	stoichiometry N [2]	Substance
1		full-length human histone H4 (from UniProt P62805 1-103) (natural protein)
	1	globular domain of ASF1a (aa 1–157) (from UniProt Q9Y294 1-157) (domain or fragment)
	1	N-terminal domain of human MCM2 (aa 63–154) (from UniProt P49736 63-154) (domain or fragment)
